According to doi:10.1101/738153:

Columns and labels:
[1] = biological target: TbBILBO1 N-terminal domain (TbBILBO1-NTD), wild type, residues 1-120 (Trypanosoma brucei); experiment: ITC
[2] = biological target: TbBILBO1-NTD Y64A (Trypanosoma brucei); experiment: ITC

Substance: TbFPC4 C-terminal domain (TbFPC4-CTD), residues 357-404 (domain or fragment)
- Kd [1]: 5 µM
- fold reduction of binding affinity against wild type [2]: 2.5 fold
